Data: patent US20200140551A1 (GlaxoSmithKline, published 2020)
Numbering of substitutions follows the chain as printed.

Legend:
[1] = molecular target: T1, human ICOS on human T cells (human, UniProt Q9Y6W8 21-167); experiment: flow cytometry, activated human CD4 T cells, FITC MFI, donor 1123F59
T1 construct: endogenous receptor on primary cells; also called ICOS on CD4+ and CD8+ T cells of healthy human donors
T1 sequence: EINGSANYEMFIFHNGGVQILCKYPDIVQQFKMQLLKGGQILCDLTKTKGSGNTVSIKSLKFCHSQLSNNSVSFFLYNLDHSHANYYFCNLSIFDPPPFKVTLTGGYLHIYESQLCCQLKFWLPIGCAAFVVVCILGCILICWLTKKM
Description: (§1) Binding of H2L5 hIgG4PE was assessed in both naive and activated CD3+ T cells.
(§2) Either naive and/or activated CD3+ T cells were re-suspended in PBS with 0.1% BSA (FACS Buffer) containing Human FcR Blocking Solution at 2×10⁶ cells/mL (5 μl FcR Blocking Solution+[…] FACS Buffer per 1 mL). At a concentration of 2×10⁵ cells/well, 100 μl cells were placed into 2 mL 96 well Assay Blocks and incubated at room temperature for 15 minutes. During the incubation, a titration of the binding antibodies, anti-ICOS (H2L5 hIgG4PE) or IgG4 Isotype Control antibody was prepared as a 2× concentration. […] Following the binding incubation, cells were washed twice in 1 mL of FACS buffer, centrifuging at 400×g for 5 minutes at room temperature.
(§3) Data acquisition and compensation were performed on BD FACS instruments, LSR Fortessa X-20 or FACS Canto II using BD Diva (ver. 8.0) software. Data analysis employed Flow Jo software (ver.10.0.8r1). Results are reported as both MFI (Median Fluorescence Intensity) and Percent of cells positive for human IgG kappa light chain FITC staining out of the total live cells or appropriate parent population. EC50s were determined using Graphpad Prism 5 software (ver. 5.04) with non-linear regression of transformed data (X=(log(X)) using a variable slope with 4 parameters (log(Agonist) vs. response—Variable slope).

[2] = molecular target: T1, human ICOS on human T cells; experiment: flow cytometry, activated human CD4 T cells, FITC MFI, donor 1124F36
Description: as §1, §2, §3

[3] = molecular target: T1, human ICOS on human T cells; experiment: flow cytometry, activated human CD4 T cells, FITC MFI, donor 1141F45
Description: as §1, §2, §3

[4] = molecular target: T1, human ICOS on human T cells; experiment: flow cytometry, activated human CD4 T cells, FITC MFI, donor 1149M52
Description: as §1, §2, §3

[5] = molecular target: T1, human ICOS on human T cells; experiment: flow cytometry, activated human CD8 T cells, percent FITC positive, donor 1173F42
Description: as §2, §3

[6] = molecular target: T1, human ICOS on human T cells; experiment: flow cytometry, activated human CD8 T cells, percent FITC positive, donor 2100M39
Description: as §2, §3

Human ICOS -Fc = molecular target: T2, Human ICOS -Fc (human; rabbit, UniProt Q9Y6W8 21-140); experiment: SPR, BIAcore T200; antibody captured on anti-human IgG (CM5), ICOS (rabbit Fc) as analyte at 1-256 nM, 25°C, 1:1 model
T2 construct: analyte in the BIAcore T200 run; also called Human ICOS (rabbit Fc); not shown: rabbit Fc
T2 sequence: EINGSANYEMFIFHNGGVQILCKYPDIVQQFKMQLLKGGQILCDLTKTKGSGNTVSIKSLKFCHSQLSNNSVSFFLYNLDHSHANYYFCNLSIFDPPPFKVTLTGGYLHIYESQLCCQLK
Description: (§4) The binding kinetics affinity of the humanized H2L5 hIgG4PE antibody was determined used the BIAcore T200 Anti-human IgG on Fc2 of a CM5 chip Anti-ICOS H2L5 hIgG4PE captured on the surface. Anti-human IgG surface blocked with […] hIgG1 control to prevent non-specific binding of rabbit Fc. Human and cyno ICOS (rabbit Fc) passed over the captured antibodies at 256 nM, 64 nM, 16 nM, 4 nM and 1 nM. Buffer alone was used to double reference binding curves. MgCl₂ was used to regenerate surface. Run carried out at 25° C. Data fitted to 1:1 model using T200 evaluation software. Antibody concentration: 2.5 μg/mL
(§5) The ICOS binding data was fitted to a 1:1 kinetics model using the T200 data analysis software.

Cyno ICOS-Fc = molecular target: T3, Cyno ICOS-Fc (cynomolgus; rabbit, UniProt A0A2K5TQR6 21-140); experiment: as above
T3 construct: analyte in the BIAcore T200 run; also called cyno ICOS (rabbit Fc); cynomolgus ICOS; not shown: Rabbit Fc and any linker
T3 sequence: T2 sequence with H81R
Description: as §4, §5

B1: H2L5 hIgG4PE (antibody)
heavy: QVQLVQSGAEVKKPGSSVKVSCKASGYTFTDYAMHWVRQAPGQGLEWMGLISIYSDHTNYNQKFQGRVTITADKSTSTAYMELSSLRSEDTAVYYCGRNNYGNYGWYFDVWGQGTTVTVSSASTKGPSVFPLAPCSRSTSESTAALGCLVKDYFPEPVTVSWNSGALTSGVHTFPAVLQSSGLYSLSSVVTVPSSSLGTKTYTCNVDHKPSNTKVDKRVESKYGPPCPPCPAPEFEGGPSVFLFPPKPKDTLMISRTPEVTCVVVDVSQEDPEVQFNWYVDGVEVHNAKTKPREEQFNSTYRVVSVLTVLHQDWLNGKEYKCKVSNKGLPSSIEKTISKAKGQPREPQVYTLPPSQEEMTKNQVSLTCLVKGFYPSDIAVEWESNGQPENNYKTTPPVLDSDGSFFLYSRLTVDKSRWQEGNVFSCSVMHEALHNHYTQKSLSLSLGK
light: EIVLTQSPATLSLSPGERATLSCSASSSVSYMHWYQQKPGQAPRLLIYDTSKLASGIPARFSGSGSGTDYTLTISSLEPEDFAVYYCFQGSGYPYTFGQGTKLEIKRTVAAPSVFIFPPSDEQLKSGTASVVCLLNNFYPREAKVQWKVDNALQSGNSQESVTEQDSKDSTYSLSSTLTLSKADYEKHKVYACEVTHQGLSSPVTKSFNRGEC
notes: also called 422 H2L5 hIgG4PE; H2L5 IgG4PE; copies: 2 + 2
- EC50 [1]: 1.04 µg/mL
- EC50 [2]: 0.628 µg/mL
- EC50 [3]: 1.27 µg/mL
- EC50 [4]: 1.31 µg/mL
- EC50 [5]: 0.371 µg/mL
- EC50 [6]: 1.23 µg/mL
- Kd (Human ICOS -Fc): 1.34 nM
- koff (Human ICOS -Fc): 0.000396 s⁻¹
- kon (Human ICOS -Fc): 297000 M⁻¹ s⁻¹
- Kd (Cyno ICOS-Fc): 0.949 nM
- koff (Cyno ICOS-Fc): 0.000371 s⁻¹
- kon (Cyno ICOS-Fc): 391000 M⁻¹ s⁻¹
